In the assay the target is isolated C-terminal domain of FusB (Pectobacterium carotovorum LMG2410). Nature of the assay: ITC; MicroCal iTC200, 25°C, 10 mM Tris-HCl (pH 7.5)-150 mM NaCl; titrant (FusANTR-GFP, GFP or FerSp) injected in 2 μl steps into FusBCTD, FusBCTD R176K/R177K or TonBCTD in the cell.

The results in this text go back to paper PMC7593965.

For orientation: Kd means a measure of binding affinity in units of concentration. A low value points to a tighter complex. Regarding “N-terminal region of FusA (residues 21 to 66) fused to green fluorescent protein (from UniProt C6DG80 21-66) (domain or fragment)”, the Kd was found to be 57 µM. The substance “spinach ferredoxin (from UniProt P00221 51-147) (natural protein)” had a Kd of 8.7 µM.
